Test results reported in patent publication US20060240002A1, “Methods of inhibiting angiogenesis-dependent conditions mediated by cryptic epitopes of extracellular matrix components” (priority 2005, published 2006).

Assays:
[1] = target: denatured collagen type-IV; test: cell-based or functional assay
αvβ3 integrin (human) = αvβ3 integrin (human) (UniProt P06756); test: cell-based or functional assay
P27^KIP1 [2] = test: Western blot of P27^KIP1 in B16F10 melanoma cells on denatured collagen; format: cell-based, murine; settings: 24 hours
Description: (§1) To examine the effect of CLK-peptide on the expression of cyclin-dependent […] P27^KIP1, B16F10 melanoma and GL261 glioblastoma cells were resuspended in adhesion buffer in the presence or absence of CLK-peptide or control peptide. Cells were added to culture plates coated with denatured collagen and allowed to incubate for 24 hours. Total cell lysates were prepared and the proteins analyzed by Western Blot analysis.

P27^KIP1 [3] = test: Western blot of P27^KIP1 in GL261 glioblastoma cells on denatured collagen; format: cell-based; settings: 24 hours
Description: as §1

P21^CIP1 = test: Western blot of P21^CIP1 in M21 cells; format: cell-based, human; settings: 12 hours, 1% serum-containing medium
Description: The effect of CLK-peptide on the expression of P21^CIP1 was examined by Western Blot analysis. M21 cells were resuspended in adhesion buffer in the presence or absence of CLK-peptide and allowed to incubate for 12 hours in 1% serum-containing medium. Total cell lysates were prepared and the levels of P21^CIP1 and actin analyzed by Western Blot analysis.

B16F10 tumor cells [4] = test: Differential cDNA array analysis of B16F10 tumor cells treated with peptides (Example X); format: cell-based, murine; settings: 12 hours, Example X written in present tense
Description: To evaluate the effect of inhibiting the HUIV26 cryptic collagen epitope using the SLK- and CLK-Peptides, an Affymetrix™-based differential cDNA array analysis is performed using B16F10 tumor cells treated or not treated with SLK- or CLK-peptide. Non-tissue culture treated dishes are coated overnight with 100 μg/ml of denatured collagen IV in PBS. The next morning the plates are washed and incubated in blocking solution (1% BSA in PBS) for approximately 30 minutes. Tumor cells (7×10^6) are resuspended in serum free media and added to each plate in the presence or absence of CLK-Peptide, SLK-Peptide or a control peptide. The cells are allowed to incubate for a total of 12 hours.
Following the 12-hour incubation period, the cells are harvested and the RNA is isolated using both a TRIzol reagent and the Qiagen Rneasy Mini Protocol for RNA Cleanup. After RNA extraction, the amount and quality of RNA is quantified utilizing a spectrophotomer. 5-8 μg of total RNA is utilized to synthesize double-stranded cDNA. The first cDNA strand is obtained using a reaction mixture containing a T7-(dT)24 Primer, 1× First Strand Buffer, 0.1M DTT and 10 mM dNTP mix in addition to the extracted RNA. The tubes are incubated at 42° C. for approximately 1.5 hours. […]

B16F10 tumor cells [5] = test: Real time quantitative RT-PCR of B16F10 cells treated with peptides (Example X); format: cell-based, murine; settings: vs control peptide, Example X written in present tense
Description: Relative expression levels of genes are assessed by both real time quantitative RT-PCR and Western Blot analysis. Tumor cells (B16F10) are allowed to interact with denatured collagen type-IV in the presence or absence of the SLK-peptide, CLK-peptide, or control peptide. Whole cell lysates are prepared from the various cell samples.
Real Time quantitative RT-PCR is carried out essentially as described with some modifications (Livak et al., Method 2001, 25:402-408). Total RNA is isolated using RNeasy miniprep columns (Qiagen, Valencia Calif.) according to the manufacturer's instructions. Total RNA (1 μg) is reverse transcribed using 1× Reverse Transcriptase Buffer, MgCl2 (3 mM), dNTP (2.0 mM), RNAse inhibitor (0.2 U/μl), random hexamer primers (0.5 mM), and MMLV reverse transcriptase (0.3 U/μl) in 20 μl reactions using a 3-step cycle (Promega, Madison, Wis.). Real-time fluorescence detection is carried out using an ABI Prism 7900 Sequence Detection System. Reactions are carried out in microAmp 96 well reaction plates. Primers and probes are designed using Primer 3 version 2 and ENSEMBL software (Promega).

B16F10 tumor cells [6] = test: Western blot of B16F10 cells treated with peptides (Example X); format: cell-based, murine; settings: B16F10 cells on denatured collagen type-IV; vs no treatment or control peptide; Example X written in present tense
Description: Western blot analyses indicate a corresponding increase in protein levels. Western blotting was performed as previously described, by coating non-tissue culture treated plates with denatured collagen type-IV (10.0 μg/ml). Equal numbers of tumor cells (B16F10) from sub-confluent cultures are harvested, washed and added to the coated plates in the presence or absence of SLK-peptide, CLK-peptide, or control peptide, and allowed to incubate in 1.0% serum-containing medium. Cells are harvested, washed, and lysed in 1.0% Triton X-100 buffer containing 300 mM NaCl, 50 mM Tris (pH 7.0) and 1× protease inhibitor cocktail. Equal amounts (25 μg/lane) of tumor cell lysates are separated by SDS Page and transferred to nitrocellulose membranes. Membranes are probed by incubation with either polyclonal antibodies directed to P21^CIP1 or Actin (Santa Cruz) as described previously (Brooks et al., Cell 1998, 92: 391-400; Petitclerc et al., Cancer Res. 1999, 59: 2724-2730). Western blots are visualized by a chemiluminesence detection system (Amersham Life Sciences).

Sequence of UniProt P06756 (P06756 31-1048, chain 1 of 2): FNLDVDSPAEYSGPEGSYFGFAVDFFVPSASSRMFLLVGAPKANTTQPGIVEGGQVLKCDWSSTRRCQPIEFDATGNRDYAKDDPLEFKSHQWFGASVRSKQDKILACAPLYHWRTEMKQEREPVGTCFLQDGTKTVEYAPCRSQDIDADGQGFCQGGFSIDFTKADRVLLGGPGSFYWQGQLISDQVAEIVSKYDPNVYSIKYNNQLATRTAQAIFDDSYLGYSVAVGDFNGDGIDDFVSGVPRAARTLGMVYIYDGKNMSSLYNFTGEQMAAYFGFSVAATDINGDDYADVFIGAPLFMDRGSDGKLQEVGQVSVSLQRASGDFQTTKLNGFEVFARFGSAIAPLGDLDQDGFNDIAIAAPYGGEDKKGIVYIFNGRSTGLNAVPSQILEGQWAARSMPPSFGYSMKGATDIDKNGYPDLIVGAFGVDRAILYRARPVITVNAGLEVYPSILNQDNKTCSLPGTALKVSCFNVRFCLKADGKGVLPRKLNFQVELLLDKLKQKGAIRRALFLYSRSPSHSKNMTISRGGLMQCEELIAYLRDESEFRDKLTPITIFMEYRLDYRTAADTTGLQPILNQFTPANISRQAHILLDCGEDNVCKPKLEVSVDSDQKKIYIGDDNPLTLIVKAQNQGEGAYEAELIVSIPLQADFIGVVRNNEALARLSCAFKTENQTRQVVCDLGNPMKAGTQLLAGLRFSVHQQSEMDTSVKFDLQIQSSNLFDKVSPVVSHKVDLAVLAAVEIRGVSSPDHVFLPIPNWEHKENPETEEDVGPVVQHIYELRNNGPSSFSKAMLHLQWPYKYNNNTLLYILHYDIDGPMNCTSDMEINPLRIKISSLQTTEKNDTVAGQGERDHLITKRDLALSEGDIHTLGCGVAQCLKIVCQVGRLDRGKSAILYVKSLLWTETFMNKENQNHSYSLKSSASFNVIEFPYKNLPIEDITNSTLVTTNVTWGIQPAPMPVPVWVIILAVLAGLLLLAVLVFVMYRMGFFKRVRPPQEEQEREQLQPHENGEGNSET
Sequence of UniProt P06756 (P05106 27-788, chain 2 of 2, further chain): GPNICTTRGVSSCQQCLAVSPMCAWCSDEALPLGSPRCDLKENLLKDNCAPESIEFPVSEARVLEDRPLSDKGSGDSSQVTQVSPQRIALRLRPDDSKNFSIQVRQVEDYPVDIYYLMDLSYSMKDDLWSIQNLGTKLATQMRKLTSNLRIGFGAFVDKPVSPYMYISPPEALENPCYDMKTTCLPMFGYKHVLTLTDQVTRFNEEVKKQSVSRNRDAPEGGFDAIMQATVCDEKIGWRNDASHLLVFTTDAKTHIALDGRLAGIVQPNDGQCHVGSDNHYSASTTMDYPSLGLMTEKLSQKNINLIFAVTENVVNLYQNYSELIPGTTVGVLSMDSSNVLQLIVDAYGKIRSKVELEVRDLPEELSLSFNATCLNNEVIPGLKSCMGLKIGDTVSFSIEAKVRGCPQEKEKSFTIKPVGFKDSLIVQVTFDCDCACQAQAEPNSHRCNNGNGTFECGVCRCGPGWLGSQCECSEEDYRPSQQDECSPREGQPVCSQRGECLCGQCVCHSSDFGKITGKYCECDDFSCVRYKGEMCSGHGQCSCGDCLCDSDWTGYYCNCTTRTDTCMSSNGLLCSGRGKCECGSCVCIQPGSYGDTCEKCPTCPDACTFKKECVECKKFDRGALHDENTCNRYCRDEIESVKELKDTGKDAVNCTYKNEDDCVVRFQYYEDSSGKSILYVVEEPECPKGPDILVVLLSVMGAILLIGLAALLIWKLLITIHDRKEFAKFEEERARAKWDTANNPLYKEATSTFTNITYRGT

Mab HUI77 (antibody)
relative level of P21^CIP1 mRNA in HUVECs (real time RT-PCR) [1]: 10 fold
relative level of P27^KIP1 mRNA in HUVECs (real time RT-PCR) [1]: > 5 fold

Mab HUIV26 (antibody)
TSP-1 mRNA levels in HUVECs (real-time PCR) [1]: 6 fold
adhesion of B16F10 cells to denatured collagen type-IV [1]: 50 % inhibition
expression of P21^CIP1 protein in B16F10 cells (Western blot) [1]: 2 fold
migration of B16F10 tumor cells on denatured collagen type-IV [1]: 50 % inhibition
relative level of P21^CIP1 mRNA in B16F10 cells (real time RT-PCR) [1]: 2.3 fold
relative levels of IGFBP-4 RNA in M21 cells (RT-PCR) [1]: 115 fold
relative levels of IGFBP-4 mRNA in HUVECs (RT-PCR) [1]: > 10 fold
relative levels of Id-1 in M21 cells (real-time PCR) (fold decrease) [1]: 2
relative levels of TSP-1 RNA in M21 cells (real-time PCR) [1]: 7 fold

Mab LM609 (antibody)
relative level of TSP-1 in M21 cells on denatured collagen type-IV (real-time PCR) (αvβ3 integrin (human)): 8 fold

NH2—C-L-K-Q-N-G-G-N—F—S-L-G-COOH (H-CLKQNGGNFSLG-OH) [CLK-peptide]
expression of P27^KIP1 (Western blot) (P27^KIP1 [2]): significant upregulation
expression of P27^KIP1 (Western blot) (P27^KIP1 [3]): significant upregulation
expression of P21^CIP1 (Western blot) (P21^CIP1): significant upregulation
expression of certain genes (cDNA array) (B16F10 tumor cells [4]): significant increase
relative levels of certain RNAs (RT-PCR) (B16F10 tumor cells [5]): significant increase in the relative levels of certain RNAs and significant decrease in other RNAs
expression of certain proteins (Western blot) (B16F10 tumor cells [6]): significant increase in expression of certain proteins and a significant decrease in expression of other proteins

NH2—S-L-K-Q-N-G-G-N—F—S-L-C—COOH (H-SLKQNGGNFSLC-OH) [SLK-peptide]
expression of certain genes (cDNA array) (B16F10 tumor cells [4]): significant increase
relative levels of certain RNAs (RT-PCR) (B16F10 tumor cells [5]): significant increase in the relative levels of certain RNAs and significant decrease in other RNAs
expression of certain proteins (Western blot) (B16F10 tumor cells [6]): significant increase in expression of certain proteins and a significant decrease in expression of other proteins
